In PMC8545111, “Molecular Basis of the Versatile Regulatory Mechanism of HtrA-Type Protease AlgW from Pseudomonas aeruginosa” (mBio, 2021):
Substitutions are numbered along the chain they refer to. Where “and” joins values, the source holds several entries; their conditions need not be identical. Identical values can stand only once. Non-standard residues stand in square brackets, D forms with d. Residues, ends and D or L forms follow the SMILES beside them. *: point of attachment. pNA = O=[N+]([O-])c1ccc(N*)cc1; 2Abz = Nc1ccccc1C(=O)O

Experiments:
[1] = test system: CC(C)C[C@H](NC(=O)[C@@H](NC(=O)c1ccccc1N)C(C)C)C(=O)N[C@@H](C)C(=O)NCC(=O)Nc1ccc([N+](=O)[O-])cc1; test: Fluorogenic Abz-VLAG-pNA cleavage by peptide-activated AlgW and LA loop mutants (200 nM), 25 mM Tris pH 7.5, 150 mM NaCl, 37°C, Michaelis-Menten fit.; format: biochemical
Protocol: Based on the identified MucA and MucB cleavage sites for AlgW ([6], [13]), self-quenching fluorogenic tetrapeptides derived from 134-VLAG-137 of MucA (Abz-VLAG-pNA), 211-TVAW-214 of MucB (Abz-TVAW-pNA), and alanine tetrapeptide (Abz-AAAA-pNA) were synthesized and subjected to real-time measurement of AlgW proteolytic activity in the presence of excessive peptides (10 mM) (Fig. 2A). Compared with the negative-control group (using Abz-AAAA-pNA substrate), both Abz-VLAG-pNA and Abz-TVAW-pNA could be efficiently cleaved by AlgW. […] Considering that MucA is the major target of AlgW, substrate Abz-VLAG-pNA and decapeptide activator SVRDELRWVF were selected to establish a real-time AlgW assay to investigate the kinetic mechanism.
(§1) For the enzyme mechanism of AlgW (30–389) and mutants, two internally quenched fluorescent peptide substrates incorporating the peptidase cleavage site of MucA/MucB, Abz-VLAG-pNA and Abz-TVAW-pNA, were designed and synthesized (GL Biochem Shanghai Ltd., China). In the intact peptide, the fluorescence of the anthraniloyl group is quenched by the P-nitroaniline (Abz is a fluorogenic group, and pNA is a quencher of fluorescence). This quenched fluorescence is liberated upon cleavage of peptide by 200 nM AlgW and mutants (200/3 nM for trimer), resulting in increased fluorescence that can then be monitored fluorometrically. Prior to the assay, all enzyme preparations were incubated with 10 mM agonist peptides (WVF or SVRDELRWVF) for 30 min at room temperature. All assays were placed in a buffer containing 25 mM Tris (pH 7.5) and 150 mM NaCl at 37°C for 1 h, and the final assay volume was 100 μl. The fluorescent degradation products were monitored at 60-s intervals at fluorescence wavelength—λex = 310 nm, λem = 420 nm ([41]). All data points were representative of three independent determinations and were simulated with solid lines with the formula Y = Vmax · X^h/(Km ^h + X^h) or Y = Vmax · X^h/(Khalf^h + X^h) or the Michaelis-Menten formula (Y = Vmax · X/[Km + X]). Substrate versus velocity was used to determine Km and Vmax, and agonists versus velocity was used to determine the half-maximal activation concentration and maximum activation rate of agonists. The fitting and calculation of data were carried out using Prism 7 (GraphPad, CA, USA).

AlgW = test: Quenched fluorescent substrate cleavage by peptide/lipid-activated AlgW (substrate versus velocity); format: biochemical, Pseudomonas aeruginosa; details: three independent determinations; for Km / Vmax: substrate gradient 3.125-300 μM, Hill fit; for Km / Hill constants: Tris pH 7.5, 37°C; for Hill constants: substrate gradient; for Vmax: 25 mM Tris pH 7.5, 150 mM NaCl, 37°C, 1 h, fluorescence ex 310/em 420 nm
Protocol: FIG 2 Determination of enzyme apparent kinetic parameters of dual-signal-activated AlgW. (A) Activity assay of tripeptide or decapeptide-activated AlgW using the quenched fluorescent substrates Abz-VLAG-pNA, Abz-TVAW-pNA, and Abz-AAAA-pNA. All assays were placed in a buffer containing 25 mM Tris (pH 7.5) and 150 mM NaCl at 37°C for 1 h by adding 100 μM substrate, 200 nM AlgW, and 10 mM agonist peptides (tripeptide WVF or decapeptide SVRDELRWVF). (B) The apparent Michaelis-Menten parameters of AlgW cleavage quenched fluorescent substrates Abz-VLAG-pNA (100 μM) under the condition of peptide or lipid activation. (C) The activity assay of peptide or DDM activated AlgW using the saturated quenched fluorescent substrates Abz-VLAG-pNA. Under the gradient of peptide or DDM concentration,100 μM substrate and 200 nM AlgW were coincubated with or without 400 μM DDM or 10 mM agonist peptides in a buffer containing 25 mM Tris (pH 7.5) and 150 mM NaCl at 37°C for 1 h. The final assay volume of all experiments was 100 μl, and the appearance of fluorescent products was monitored at 60-s intervals at fluorescence wavelengths of λex = 310 nm and λem = 420 nm. All data points were representative of three independent determinations and were simulated with solid lines through the formula of Y = Vmax · X^h/(Km^h + X^h) or Y = Vmax · X^h/(Khalf^h + X^h). The Kcat for the AlgW trimer was calculated by Kcat = Vmax/(Etotal), (Etotal) = 200/3 nM trimers. Error bars represent the standard deviation.
as §1
All experiments were performed in independent biological triplicate, and the results of replicates were consistent. The fitting and calculation of data were carried out with Prism 7 (GraphPad, CA, USA). All the enzyme kinetic data points were representative of three independent determinations and were simulated with solid lines through the formula Y = Vmax · X^h/(Km^h + X^h) or Y = Vmax · X^h/(Khalf^h + X^h) or the Michaelis-Menten formula (Y = Vmax · X/[Km + X]). Substrate versus velocity was used to determine Km and Vmax, and agonists versus velocity was used to determine the half-maximal activation concentration and maximum activation rate of agonists; error bars represent the standard deviation.

AlgW and mutants = test: Apparent activation parameters of AlgW and mutants (peptide agonist gradient); format: biochemical, Pseudomonas aeruginosa; details: peptide activator (decapeptide) gradient, substrate Abz-VLAG-pNA, Michaelis-Menten fit, means of three independent determinations; for Maximal cleavage activity: Tris pH 7.5, 150 mM NaCl, 37°C; for EC50: read-out: Half-maximal activation concn
Text: as §1

[2] = decapeptide SVRDELRWVF (10 mM) activated AlgW 200 nM
[3] = decapeptide SVRDELRWVF (10 mM, 30 min RT pre-incubation) activated AlgW 200 nM
[4] = tripeptide WVF (10 mM) activated AlgW 200 nM
[5] = tripeptide WVF (10 mM, 30 min RT pre-incubation) activated AlgW 200 nM

AlgW-T71A (Pseudomonas aeruginosa PAO1; T71A)
Km [1]: 48.29 ± 6.19 µM
Vmax [1]: 154 µM/min
kcat/Km [1]: 799000 ± 33200 M⁻¹ s⁻¹

AlgW-K73A (Pseudomonas aeruginosa PAO1; K73A)
Km [1]: 247.9 ± 93.04 µM
Vmax [1]: 188 µM/min
kcat/Km [1]: 189000 ± 39700 M⁻¹ s⁻¹

AlgW-ESS (103–105)A (Pseudomonas aeruginosa PAO1; E103A/S104A/S105A)
Km [1]: 123.1 ± 19.44 µM
Vmax [1]: 873 µM/min
kcat/Km [1]: 1.77e+06 ± 122000 M⁻¹ s⁻¹

AlgW-T72A (Pseudomonas aeruginosa PAO1; T72A)
Km [1]: 86.69 ± 15.8 µM
Vmax [1]: 766 µM/min
kcat/Km [1]: 2.21e+06 ± 156000 M⁻¹ s⁻¹

CC(C)C[C@H](NC(=O)[C@@H](NC(=O)c1ccccc1N)C(C)C)C(=O)N[C@@H](C)C(=O)NCC(=O)Nc1ccc([N+](=O)[O-])cc1 [Abz-VLAG-pNA] (H-[2Abz]VLAG-pNA)
Km (AlgW; [2]): 50.1 ± 9.65 µM
Hill constants (AlgW; [2]): ~1 and 0.95 ± 0.09
Vmax (AlgW; [3]): 187 ± 12.83 µM/min
Km (AlgW; [4]): 14.8 ± 2.16 µM
Hill constants (AlgW; [4]): 1.51 ± 0.29
Vmax (AlgW; [5]): 81.23 ± 4.02 µM/min

AlgW-TTK (71–73)A (Pseudomonas aeruginosa PAO1; K73A/T71A/T72A)
Km [1]: 125.1 ± 19.87 µM
Vmax [1]: 1430 µM/min
kcat/Km [1]: 2.86e+06 ± 199000 M⁻¹ s⁻¹

CC(C)[C@H](NC(=O)[C@@H](NC(=O)c1ccccc1N)[C@@H](C)O)C(=O)N[C@@H](C)C(=O)N[C@@H](Cc1c[nH]c2ccccc12)C(=O)Nc1ccc([N+](=O)[O-])cc1 [Abz-TVAW-pNA] (H-[2Abz]TVAW-pNA)
Km (AlgW; [2]): 26.9 ± 1.48 µM
Hill constants (AlgW; [2]): 1.26 and 1.26 ± 0.07
Vmax (AlgW; [3]): 319.5 ± 6.42 µM/min
Km (AlgW; [4]): 25.1 ± 1.93 µM
Hill constants (AlgW; [4]): 1.25 and 1.25 ± 0.09
Vmax (AlgW; [5]): 264.1 ± 7.31 µM/min

B1: AlgW-R374A (protein)
chain: VGLPRQEVHVEQAPLLSRLQEGPVSYANAVSRAAPAVANLYTTKMVSKPSHPLFDDPMFRRFFGDNLPQQKRMESSLGSAVIMSAEGYLLTNNHVTAGADQIIVALRDGRETIAQLVGSDPETDLAVLKIDLKNLPAMTLGRSDGIRTGDVCLAIGNPFGVGQTVTMGIISATGRNQLGLNTYEDFIQTDAAINPGNSGGALVDAAGNLIGINTAIFSKSGGSQGIGFAIPTKLALEVMQSIIEHGQVIRGWLGVEVKALTPELAESLGLGETAGIVVAGVYRDGPAARGGLLPGDVILTIDKQEASDGRRSMNQVARTRPGQKISIVVLRNGQKVNLTAEVGLAPPPAPAPQQKQDGGE
modifications: left off: His6, C-terminal, state not stated
Maximal cleavage activity (AlgW and mutants): 5.45 ± 0.68 µM/min

B2: AlgW-E266A (protein)
chain: B1 chain with E237A, A345R
modifications: left off: His6, C-terminal, state not stated
EC50 (AlgW and mutants): 1080 ± 500 nM
Maximal cleavage activity (AlgW and mutants): 60.51 ± 5.07 µM/min

B3: AlgW-L282A (protein)
chain: B1 chain with L253A, A345R
modifications: left off: His6, C-terminal, state not stated
EC50 (AlgW and mutants): 2760 ± 1190 nM
Maximal cleavage activity (AlgW and mutants): 13.24 ± 1.59 µM/min

B4: AlgW-Y212A (protein)
chain: B1 chain with Y183A, A345R
modifications: left off: His6, C-terminal, state not stated
EC50 (AlgW and mutants): 2120 ± 620 nM
Maximal cleavage activity (AlgW and mutants): 39.46 ± 6.17 µM/min

B5: AlgW-E285A (protein)
chain: B1 chain with E256A, A345R
modifications: left off: His6, C-terminal, state not stated
EC50 (AlgW and mutants): 3840 ± 1090 nM
Maximal cleavage activity (AlgW and mutants): 57.5 ± 4.9 µM/min

B6: AlgW-W281A (protein)
chain: B1 chain with W252A, A345R
modifications: left off: His6, C-terminal, state not stated
EC50 (AlgW and mutants): 1510 ± 720 nM
Maximal cleavage activity (AlgW and mutants): 10.32 ± 1.51 µM/min

B7: AlgW-E151A (protein)
chain: B1 chain with E122A, A345R
modifications: left off: His6, C-terminal, state not stated
EC50 (AlgW and mutants): 2990 ± 560 nM
Maximal cleavage activity (AlgW and mutants): 34.93 ± 1.87 µM/min

B8: AlgW-R347A (protein)
chain: B1 chain with R318A, A345R
modifications: left off: His6, C-terminal, state not stated
EC50 (AlgW and mutants): 1850 ± 990 nM
Maximal cleavage activity (AlgW and mutants): 63.5 ± 8.42 µM/min

B9: AlgW-K287A (protein)
chain: B1 chain with K258A, A345R
modifications: left off: His6, C-terminal, state not stated
EC50 (AlgW and mutants): 6530 ± 1380 nM
Maximal cleavage activity (AlgW and mutants): 49.42 ± 3.59 µM/min

B10: AlgW-D149A (protein)
chain: B1 chain with D120A, A345R
modifications: left off: His6, C-terminal, state not stated
Maximal cleavage activity (AlgW and mutants): 8.16 ± 0.85 µM/min

B11: AlgW-V284A (protein)
chain: B1 chain with V255A, A345R
modifications: left off: His6, C-terminal, state not stated
EC50 (AlgW and mutants): 3560 ± 730 nM
Maximal cleavage activity (AlgW and mutants): 63.13 ± 3.82 µM/min

B12: AlgW-R279A (protein)
chain: B1 chain with R250A, A345R
modifications: left off: His6, C-terminal, state not stated
EC50 (AlgW and mutants): 2190 ± 990 nM
Maximal cleavage activity (AlgW and mutants): 26.87 ± 3.21 µM/min
